# B1: APT102: soluble apyrase, enhanced form of soluble CD39L3 R67G T69R (SEQ ID NO: 2) (protein)
# chain: EVLPPGLKYGIVLDAGSSGTRVYVYQWPAEKENNTGVVSQTFKCSVKGSGISSYGNNPQDVPRAFEECMQKVKGQVPSHLHGSTPIHLGATAGMRLLRLQNETAANEVLESIQSYFKSQPFDFRGAQIISGQEEGVYGWITANYLMGNFLEKNLWHMWVHPHGVETTGALDLGGASTQISFVAGEKMDLNTSDIMQVSLYGYVYTLYTHSFQCYGRNEAEKKFLAMLLQNSPTKNHLTNPCYPRDYSISFTMGHVFDSLCTVDQRPESYNPNDVITFEGTGDPSLCKEKVASIFDFKACHDQETCSFDGVYQPKIKGPFVAFAGFYYTASALNLSGSFSLDTFNSSTWNFCSQNWSQLPLLLPKFDEVYARSYCFSANYIYHLFVNGYKFTEETWPQIHFEKEVGNSSIAWSLGYMLSLTNQIPAESPLIRLPIEPPV
# Columns and labels:
# [1] = test system: human platelet-rich plasma (PRP); assay: ADP-induced human platelet aggregation in platelet-rich plasma; type: cell-based; conditions: ADP-activated, light transmission, 6 min
# Protocol: FIGS. 1A and 1B show the effect of apyrase APT102 used as such and of a fusion protein thereof, APT402, on platelet aggregation in an ex vivo reaction mixture comprising human platelet-rich plasma (PRP) activated with 20 μM ADP. […] X axis is the assay time (6 min duration), Y axis is the light transmission. […] Arrows indicate addition of ADP and apyrases.
# (§1) The inhibitory activity on FX activation was assayed using peripheral blood mononuclear cells (PBMC) purified from normal human donors and anesthetized rabbits by standard methods. […] As expected, APT102 had no effect on PBMC pro-coagulant activity.
# [2] = test system: peripheral blood mononuclear cells (PBMC) from normal human donors; assay: LPS-induced Factor X activation in human PBMC; type: cell-based; conditions: human PBMCs
# Protocol: (§2) Peripheral blood mononuclear cells were incubated with LPS (1 mg/ml) to induce tissue factor expression and FX activation measured in the presence of FVII, FX and chromogenic substrate 52765.
# as §1
# [3] = test system: thrombin generation in human platelet rich plasma; assay: Thrombin generation by calibrated automated thrombography (CAT) in ADP-activated human PRP; type: cell-based; conditions: 20 uM ADP-activated human platelets, equal molar concentrations
# Protocol: Shown are thrombograms of nanomolar thrombin that were generated in human platelet rich plasma activated with […].
# Thrombin generation in citrated human platelet rich plasma (PRP) was quantified by calibrated automated thrombography (CAT) using the Thrombinoscope system (Synapse), according to methods developed by Hemker et al. Aliquots of PRP were incubated with agents for 15 min at room temperature, and then for 5 min at 37° C. in wells of 96-well plates. Thrombin generation was initiated by addition of 0.5 pM tissue factor and CaCl2 to 16.7 mM and monitored in a microtiter plate fluorometer (Fluoroskan Ascent, Thermo Electron Corp., Vantaa, Finland). Thrombograms (nM thrombin generated vs. time) were generated using the Thrombinoscope software, as were key thrombin generation parameters: lag time to onset of thrombin generation (min), peak thrombin concentration (nM), time to peak thrombin (min), and endogenous thrombin potential (ETP; integrated area under the thrombogram curve).
# The effects of APT102, annexin V, APT102+annexin V, and APT402 at equal molar concentrations on thrombin generation from 20 uM ADP-activated human platelets were compared using CAT assays (FIG. 3). […] These features were mimicked by APT402.
# [4] = test system: IVC fibrosis (collagen deposition); assay: Chronic murine electrolytic injury model (EIM) of DVT, fibrosis; type: in vivo; conditions: mice, 1.0 mg/kg ip bolus daily for 14 days
# Description: In a chronic fibrotic study, mice were randomized and blinded into the following groups (n=5-12/group).
# Collagen deposition was stained with Masson's trichrome 14 days post DVT induction.
# [5] = test system: peripheral blood mononuclear cells (PBMC) from anesthetized rabbits; assay: LPS-induced Factor X activation in rabbit PBMC; type: cell-based; conditions: rabbit PBMCs
# Protocol: as §2, §1
molecule,measurement,setting,value
B1,inhibition of ADP-induced human platelet aggregation,[1],dose-dependently inhibits
same,reduction in LPS-induced FX activation,[2],no effect
same,peak thrombin concentration,[3],modest inhibitory effect
same,time to peak thrombin,[3],modest inhibitory effect
same,"deaths, increased bleeding or gross side effects",[4],no deaths or increased bleeding or gross side effects
same,reduction of collagen deposition,[4]; Masson's trichrome 14 days post DVT induction,11%
same,reduction in LPS-induced FX activation,[5],no effect
